According to US20200297818A1 (ZEALAND PHARMA A S, published 2020):
Where a chain is given by its changes, count along the chain named. *1 amine or outer side, *2 acyl side, *3 side chain or, on linkers, in order; H or OH if unused. Side-chain parts run from the residue outwards. [ ]: non-standard residue; d: D form. The star is where a group is joined. C20 diacid = O=C(O)CCCCCCCCCCCCCCCCCCC(=O)*; C18 diacid = O=C(O)CCCCCCCCCCCCCCCCC(=O)*; γGlu = O=C(O)[C@H](CCC(=O)[*:2])N[*:1]; AEEA = NCCOCCOCC(=O)O; Aib = CC(C)(N)C(=O)O

T1: human GLP-2 receptor (hGLP2-R) (human, UniProt O95838 1-553)
T1 sequence (looked up): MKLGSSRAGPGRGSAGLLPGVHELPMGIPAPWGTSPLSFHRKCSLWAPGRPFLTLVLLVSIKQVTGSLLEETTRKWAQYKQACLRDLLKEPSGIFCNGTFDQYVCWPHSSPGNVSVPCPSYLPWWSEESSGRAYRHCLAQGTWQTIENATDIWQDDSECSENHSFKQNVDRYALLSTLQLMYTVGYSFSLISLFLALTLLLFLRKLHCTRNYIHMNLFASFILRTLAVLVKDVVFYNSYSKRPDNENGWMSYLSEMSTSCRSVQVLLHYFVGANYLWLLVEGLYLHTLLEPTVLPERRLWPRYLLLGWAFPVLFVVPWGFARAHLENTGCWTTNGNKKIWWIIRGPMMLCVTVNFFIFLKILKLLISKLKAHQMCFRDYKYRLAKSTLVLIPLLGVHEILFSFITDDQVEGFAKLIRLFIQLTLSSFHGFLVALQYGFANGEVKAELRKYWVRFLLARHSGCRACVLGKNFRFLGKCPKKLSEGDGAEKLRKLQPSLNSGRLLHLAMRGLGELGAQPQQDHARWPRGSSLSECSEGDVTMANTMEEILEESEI

B1: Compound 1 (peptide)
peptide: HXEGTFSSELATILDXEAARDFIAWLIEHKITD
HELM: PEPTIDE1{H.[Aib].E.G.T.F.S.S.E.L.A.T.I.L.D.K.E.A.A.R.D.F.I.A.W.L.I.E.H.K.I.T.D}|PEPTIDE2{[O=C(O)CCCCCCCCCCCCCCCCC(=O)[*:2]].[gGlu]}$PEPTIDE1,PEPTIDE2,16:R3-2:R2$$$V2.0
SMILES: CC[C@H](C)[C@H](NC(=O)[C@H](Cc1ccccc1)NC(=O)[C@H](CC(=O)O)NC(=O)[C@H](CCCNC(=N)N)NC(=O)[C@H](C)NC(=O)[C@H](C)NC(=O)[C@H](CCC(=O)O)NC(=O)[C@H](CCCCNC(=O)CC[C@H](NC(=O)CCCCCCCCCCCCCCCCC(=O)O)C(=O)O)NC(=O)[C@H](CC(=O)O)NC(=O)[C@H](CC(C)C)NC(=O)[C@@H](NC(=O)[C@@H](NC(=O)[C@H](C)NC(=O)[C@H](CC(C)C)NC(=O)[C@H](CCC(=O)O)NC(=O)[C@H](CO)NC(=O)[C@H](CO)NC(=O)[C@H](Cc1ccccc1)NC(=O)[C@@H](NC(=O)CNC(=O)[C@H](CCC(=O)O)NC(=O)C(C)(C)NC(=O)[C@@H](N)Cc1c[nH]cn1)[C@@H](C)O)[C@@H](C)O)[C@@H](C)CC)C(=O)N[C@@H](C)C(=O)N[C@@H](Cc1c[nH]c2ccccc12)C(=O)N[C@@H](CC(C)C)C(=O)N[C@H](C(=O)N[C@@H](CCC(=O)O)C(=O)N[C@@H](Cc1c[nH]cn1)C(=O)N[C@@H](CCCCN)C(=O)N[C@H](C(=O)N[C@H](C(=O)N[C@@H](CC(=O)O)C(=O)O)[C@@H](C)O)[C@@H](C)CC)[C@@H](C)CC
B2: Compound 2 (peptide)
peptide: B1 peptide with T5S, S7T
HELM: PEPTIDE1{H.[Aib].E.G.S.F.T.S.E.L.A.T.I.L.D.K.E.A.A.R.D.F.I.A.W.L.I.E.H.K.I.T.D}|PEPTIDE2{[O=C(O)CCCCCCCCCCCCCCCCC(=O)[*:2]].[gGlu]}$PEPTIDE1,PEPTIDE2,16:R3-2:R2$$$V2.0
SMILES: CC[C@H](C)[C@H](NC(=O)[C@H](Cc1ccccc1)NC(=O)[C@H](CC(=O)O)NC(=O)[C@H](CCCNC(=N)N)NC(=O)[C@H](C)NC(=O)[C@H](C)NC(=O)[C@H](CCC(=O)O)NC(=O)[C@H](CCCCNC(=O)CC[C@H](NC(=O)CCCCCCCCCCCCCCCCC(=O)O)C(=O)O)NC(=O)[C@H](CC(=O)O)NC(=O)[C@H](CC(C)C)NC(=O)[C@@H](NC(=O)[C@@H](NC(=O)[C@H](C)NC(=O)[C@H](CC(C)C)NC(=O)[C@H](CCC(=O)O)NC(=O)[C@H](CO)NC(=O)[C@@H](NC(=O)[C@H](Cc1ccccc1)NC(=O)[C@H](CO)NC(=O)CNC(=O)[C@H](CCC(=O)O)NC(=O)C(C)(C)NC(=O)[C@@H](N)Cc1c[nH]cn1)[C@@H](C)O)[C@@H](C)O)[C@@H](C)CC)C(=O)N[C@@H](C)C(=O)N[C@@H](Cc1c[nH]c2ccccc12)C(=O)N[C@@H](CC(C)C)C(=O)N[C@H](C(=O)N[C@@H](CCC(=O)O)C(=O)N[C@@H](Cc1c[nH]cn1)C(=O)N[C@@H](CCCCN)C(=O)N[C@H](C(=O)N[C@H](C(=O)N[C@@H](CC(=O)O)C(=O)O)[C@@H](C)O)[C@@H](C)CC)[C@@H](C)CC

target: T1, human GLP-2 receptor (hGLP2-R); assay: cell-based or functional assay

Binder	EC50 GLP-2 (nM); cAMP response [nM]
B1	0.35
H-H[Aib]EGTFSSELATILDK([AEEA-Lys-Glu-Lys-γGlu-C18 diacid])QAARDFIAWLIQHKITD-OH [Compound 47]	0.048
H-H[Aib]EGTFSSELATILDK([AEEA-Lys-Glu-Lys-γGlu-C20 diacid])QAARDFIAWLIQHKITD-OH [Compound 48]	0.054
H-H[Aib]EGTFSSELATILDK([AEEA-Lys-Glu-Lys-γGlu-C18 diacid])QAARDFIAWLIEHKITD-OH [Compound 49]	0.044
H-H[Aib]EGTFSSELATILDK([AEEA-Lys-Glu-Lys-γGlu-C20 diacid])QAARDFIAWLIEHKITD-OH [Compound 50]	0.056
H-H[Aib]EGTFTSELATILDK([Lys-Glu-Lys-γGlu-C20 diacid])QAARDFIAWLIQHKITD-OH [Compound 51]	0.18
H-H[Aib]EGTFTSELATILDK([AEEA-Lys-Glu-Lys-γGlu-C20 diacid])QAARDFIAWLIQHKITD-OH [Compound 52]	0.075
B2	0.25
H-H[Aib]EGSFTSEK([AEEA-Lys-Glu-Lys-γGlu-C20 diacid])ATILDEQAARDFIAWLIEHKITD-OH [Compound 53]	0.24
H-H[Aib]EGTFTSEK([AEEA-Lys-Glu-Lys-γGlu-C20 diacid])ATILDEQAARDFIAWLIEHKITD-OH [Compound 54]	0.99
H-H[Aib]EGSFTSEK([AEEA-AEEA-Lys-Glu-Lys-γGlu-C20 diacid])ATILDEQAARDFIAWLIEHKITD-OH [Compound 55]	0.78
H-H[Aib]EGTFTSELATILDK([AEEA-Lys-Glu-Lys-γGlu-C20 diacid])QAARDFIAWLIEHKITD-OH [Compound 56]	0.076
H-H[Aib]EGSFTSELATILDK([AEEA-Lys-Glu-Lys-γGlu-C20 diacid])QAARDFIAWLIEHKITD-OH [Compound 57]	0.083
H-H[Aib]EGSFTSELATILDK([AEEA-Lys-Glu-Lys-γGlu-C20 diacid])QAARDFIAWLIAHKITD-OH [Compound 58]	0.09
H-H[Aib]EGSFTSELATILDK([AEEA-Lys-Glu-Lys-γGlu-C20 diacid])KAARDFIAWLIEHKITD-OH [Compound 59]	0.11
H-H[Aib]EGSFTSELATILDK([AEEA-AEEA-Lys-Glu-Lys-γGlu-C20 diacid])QAARDFIAWLIEHKITD-OH [Compound 60]	0.074

target: human glucagon-like peptide 1 receptor (GLP-1 R) (human, UniProt P43220 24-463); assay: cell-based or functional assay

Binder	EC50 GLP-1 (nM); cAMP response [nM]
HGDGSFSDEMNTILDNLAARDFINWLIQTKITD [Teduglutide]	39
B1	0.63
H-H[Aib]EGTFSSELATILDK([AEEA-Lys-Glu-Lys-γGlu-C18 diacid])QAARDFIAWLIQHKITD-OH [Compound 47]	0.44
H-H[Aib]EGTFSSELATILDK([AEEA-Lys-Glu-Lys-γGlu-C20 diacid])QAARDFIAWLIQHKITD-OH [Compound 48]	0.47
H-H[Aib]EGTFSSELATILDK([AEEA-Lys-Glu-Lys-γGlu-C18 diacid])QAARDFIAWLIEHKITD-OH [Compound 49]	0.27
H-H[Aib]EGTFSSELATILDK([AEEA-Lys-Glu-Lys-γGlu-C20 diacid])QAARDFIAWLIEHKITD-OH [Compound 50]	0.31
H-H[Aib]EGTFTSELATILDK([Lys-Glu-Lys-γGlu-C20 diacid])QAARDFIAWLIQHKITD-OH [Compound 51]	0.02
H-H[Aib]EGTFTSELATILDK([AEEA-Lys-Glu-Lys-γGlu-C20 diacid])QAARDFIAWLIQHKITD-OH [Compound 52]	0.02
B2	0.13
H-H[Aib]EGSFTSEK([AEEA-Lys-Glu-Lys-γGlu-C20 diacid])ATILDEQAARDFIAWLIEHKITD-OH [Compound 53]	0.076
H-H[Aib]EGTFTSEK([AEEA-Lys-Glu-Lys-γGlu-C20 diacid])ATILDEQAARDFIAWLIEHKITD-OH [Compound 54]	0.034
H-H[Aib]EGSFTSEK([AEEA-AEEA-Lys-Glu-Lys-γGlu-C20 diacid])ATILDEQAARDFIAWLIEHKITD-OH [Compound 55]	0.11
H-H[Aib]EGTFTSELATILDK([AEEA-Lys-Glu-Lys-γGlu-C20 diacid])QAARDFIAWLIEHKITD-OH [Compound 56]	0.033
H-H[Aib]EGSFTSELATILDK([AEEA-Lys-Glu-Lys-γGlu-C20 diacid])QAARDFIAWLIEHKITD-OH [Compound 57]	0.093
H-H[Aib]EGSFTSELATILDK([AEEA-Lys-Glu-Lys-γGlu-C20 diacid])QAARDFIAWLIAHKITD-OH [Compound 58]	0.089
H-H[Aib]EGSFTSELATILDK([AEEA-Lys-Glu-Lys-γGlu-C20 diacid])KAARDFIAWLIEHKITD-OH [Compound 59]	0.088
H-H[Aib]EGSFTSELATILDK([AEEA-AEEA-Lys-Glu-Lys-γGlu-C20 diacid])QAARDFIAWLIEHKITD-OH [Compound 60]	0.097
